Assay results taken from article PMC2615623 (Nucleic Acids Research, 2008).

Columns and labels:
[1] = molecular target: T1, His-tagged human RNASEH2C (human, UniProt Q8TDP1 1-164); experiment: SEC
T1 sequence (looked up): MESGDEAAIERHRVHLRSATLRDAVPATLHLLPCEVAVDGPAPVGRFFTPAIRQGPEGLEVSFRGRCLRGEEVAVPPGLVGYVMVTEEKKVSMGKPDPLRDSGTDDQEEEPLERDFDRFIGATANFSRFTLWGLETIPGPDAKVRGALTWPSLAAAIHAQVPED

[2] = molecular target: T2, His-tagged human RNASEH2B (human, UniProt Q5TBB1 1-312); experiment: SEC
T2 sequence (looked up): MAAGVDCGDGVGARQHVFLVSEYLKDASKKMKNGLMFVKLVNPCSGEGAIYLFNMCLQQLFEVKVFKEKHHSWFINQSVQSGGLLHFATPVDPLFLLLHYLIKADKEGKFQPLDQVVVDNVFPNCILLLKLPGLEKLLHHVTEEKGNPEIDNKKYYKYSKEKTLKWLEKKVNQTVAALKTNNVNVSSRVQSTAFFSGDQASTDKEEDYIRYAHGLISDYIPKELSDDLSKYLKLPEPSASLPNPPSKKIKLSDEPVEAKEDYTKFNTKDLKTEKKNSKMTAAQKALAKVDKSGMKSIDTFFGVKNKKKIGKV

stoichiometry N [1]: 1 A:B:C | stoichiometry N [2]: 1 A:B:C
B1: His-tagged human RNASEH2A (natural protein, UniProt O75792 1-299, looked up)
chain: MDLSELERDNTGRCRLSSPVPAVCRKEPCVLGVDEAGRGPVLGPMVYAICYCPLPRLADLEALKVADSKTLLESERERLFAKMEDTDFVGWALDVLSPNLISTSMLGRVKYNLNSLSHDTATGLIQYALDQGVNVTQVFVDTVGMPETYQARLQQSFPGIEVTVKAKADALYPVVSAASICAKVARDQAVKKWQFVEKLQDLDTDYGSGYPNDPKTKAWLKEHVEPVFGFPQFVRFSWRTAQTILEKEAEDVIWEDSASENQEGLRKITSYFLNEGSQARPRSSHRYFLERGLESATSL
